Test results reported in patent US20210206855A1 (ADAGENE, published 2021).
Substitutions are numbered along the chain they refer to.

What was measured:
[1] = target: T1, cynomolgus monkey CTLA4 antigen fused with human FC fragment (cynomolgus monkey, UniProt G7PL88 36-161, fused to a human Fc fragment that is not in the letters); experiment: ELISA, captured Fab
T1 sequence: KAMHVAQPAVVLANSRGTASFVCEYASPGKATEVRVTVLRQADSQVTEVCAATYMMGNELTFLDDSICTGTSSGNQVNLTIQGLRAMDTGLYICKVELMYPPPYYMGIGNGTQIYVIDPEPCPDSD

mouse CD86 = target: T2, mouse CD86 (mouse, UniProt P42082 24-244, limits assumed); experiment: flow cytometry on yeast displaying CTLA4; Normalized FACS Bound, human WT = 1
T2 sequence (looked up): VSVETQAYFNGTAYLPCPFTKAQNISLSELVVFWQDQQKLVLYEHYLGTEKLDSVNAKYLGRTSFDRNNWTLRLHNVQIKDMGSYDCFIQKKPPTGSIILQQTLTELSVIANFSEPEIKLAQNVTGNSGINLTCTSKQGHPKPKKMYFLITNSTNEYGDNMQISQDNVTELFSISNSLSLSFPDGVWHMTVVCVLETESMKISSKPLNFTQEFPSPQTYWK

[2] = target: T3, human CD86 (epitope mapping reagent) (human, UniProt P42081 24-247, limits assumed); experiment: as above
T3 sequence (looked up): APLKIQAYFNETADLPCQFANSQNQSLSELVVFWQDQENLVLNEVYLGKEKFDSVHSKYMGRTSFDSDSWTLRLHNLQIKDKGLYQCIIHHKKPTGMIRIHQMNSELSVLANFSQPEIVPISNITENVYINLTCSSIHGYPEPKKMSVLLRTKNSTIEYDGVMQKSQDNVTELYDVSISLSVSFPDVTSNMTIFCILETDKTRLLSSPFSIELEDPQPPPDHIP

human CD80 (recombinant) = target: T4, human CD80 (recombinant) (human, UniProt P33681 35-242, limits assumed, biotinylated where used in solution); experiment: as above
T4 construct: also called biotinylated CD80
T4 sequence (looked up): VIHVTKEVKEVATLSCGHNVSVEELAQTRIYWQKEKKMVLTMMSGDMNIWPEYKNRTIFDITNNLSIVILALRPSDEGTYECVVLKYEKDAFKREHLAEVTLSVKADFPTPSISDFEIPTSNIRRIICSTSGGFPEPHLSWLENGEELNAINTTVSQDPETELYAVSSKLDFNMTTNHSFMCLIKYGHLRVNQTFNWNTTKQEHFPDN

[3] = target: T5, recombinant human CTLA4-Fc (Sino Biological, 11159-H03H) (human, UniProt P16410 37-162); experiment: ELISA, coated human CTLA4-Fc
T5 construct: bought; whole entry named; Biotinylated in the yeast display assays; also called human CTLA4 fused with human FC fragment; biotinylated CTLA4-Fc; not shown: human Fc fragment
T5 sequence (looked up): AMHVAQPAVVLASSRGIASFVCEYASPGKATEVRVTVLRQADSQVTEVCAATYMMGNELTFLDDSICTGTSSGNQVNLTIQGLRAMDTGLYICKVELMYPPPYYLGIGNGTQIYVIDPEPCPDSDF
Method: (§1) The ability of certain IgG antibodies to bind to soluble human (FIG. 1A, Table 5A) or canine (FIG. 1B, Table 5B) CTLA4 was next tested. 1 μg/mL human CTLA4 fused with human FC fragment, or canine CTLA4 fused with His tag, were prepared and used to coat an ELISA plate at 2-8° C. overnight. After blocking, 100 μL serial diluted IgG antibodies were added and incubated at 37° C. for 1 hour. Plates were washed for four times and then incubated with HRP-anti human IgG (Fab specific) (1:6000 dilution) at 37° C. for 1 hour. Plates were washed again four times and incubated with TMB substrate for 15 minutes at room temperature. […] The data was analyzed by Graphpad Prism 6 with nonlinear fitting.

[4] = target: T6, canine CTLA4 fused with His tag (canine, UniProt Q9XSI1 36-162, limits assumed); experiment: ELISA, coated canine CTLA4-His
T6 construct: soluble protein; also called dog CTLA4; not shown: His tag
T6 sequence (looked up): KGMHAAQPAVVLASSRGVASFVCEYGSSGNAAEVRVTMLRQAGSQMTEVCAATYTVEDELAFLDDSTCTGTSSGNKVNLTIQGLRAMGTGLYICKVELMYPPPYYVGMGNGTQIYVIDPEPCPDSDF
Method: as §1

[5] = target: T5, recombinant human CTLA4-Fc (Sino …); experiment: ELISA, coated human CTLA4-Fc, batch 2
Method: (§2) Plates were blocked with PBS supplemented with 3% non-fat milk at 37° C. for 1 hour. After washing, 100 μL of 3-fold serial dilutions of antibodies were added to each well. After incubation at 37° C. for 1 hour, plates were washed four times, and […] conjugated anti-human IgG (Fab specific) (1:6000 dilution) was added to each well. Plates were incubated at 37° C. for 1 hour, washed four times, and then 50 μL TMB substrate solution was added to each well, and the plate was incubated at room temperature. […] The EC₅₀ was evaluated by fitting the ELISA data using the asymmetrical sigmoidal (five-parameter logistic equation) model of GraphPad Prism 6 software.

[6] = target: T5, recombinant human CTLA4-Fc (Sino …); experiment: ELISA, coated human CTLA4-Fc, batch 1
Method: as §2

[7] = target: T5, recombinant human CTLA4-Fc (Sino …); experiment: ELISA, coated human CTLA4-Fc (as Example 8)
Method: as §2

[8] = target: T5, recombinant human CTLA4-Fc (Sino …); experiment: ELISA, coated human CTLA4-Fc (as Example 8); remark: listed apart in the source
Method: as §2

[9] = target: T7, recombinant human CTLA4 fused with human Fc and His tag (human, UniProt P16410 37-162, limits assumed, biotinylated where used in solution); experiment: competition ELISA: plate-bound human CTLA4-Fc-His, biotinylated human CD80 as the blocked ligand, HRP-neutravidin
T7 construct: also called biotinylated human CTLA4 fused with human FC and His tag; recombinant human CTLA4 proteins; not shown: human Fc and His tag
T7 sequence (looked up): T5 sequence (looked up)
Method: Plates were blocked with PBS supplemented with 2% (w/v) skim milk at 37° C. for 1 hour. […] Plates were washed four times, and 100 μL HRP-neutravidin (1:1000) was added to each well and incubated at 37° C. for 1 hour. Plates were washed as previously described, and 50 μL TMB substrate solution was added and incubated at room temperature for 5 minutes before the reaction was stopped by 50 μL sulfate acid (2M).

B1: B15722 (Fab, V domains shown)
VH: EVQLVESGGGLVQPGGSLRLSCAASGFTFSDYGIHWVRQAPGKGLEWIGEIYHSGSTYYSPSLKSRVTISRDNSKNTLYLQLNSLRAEDTAVYYCARDVAPGSSGYYDGFDFWGQGTLVTVSS
VL: DIQLTQSPSSLSASVGDRVTITCRASQGIGSSLAWYQQKPGKAPKLLIYDASNRATGIPSRFSGSGSGTDFTLTISSLQPEDFATYYCQQYDQWPPWTFGQGTKVEIKR
notes: Fab hit from E. coli
B1: binds [1].

B2: human CTLA4 mutant YLGIG105FVGMG displayed on yeast (receptor)
chain: KAMHVAQPAVVLASSRGIASFVCEYASPGKATEVRVTVLRQADSQVTEVCAATYMMGNELTFLDDSICTGTSSGNQVNLTIQGLRAMDTGLYICKVELMYPPPYFVGMGNGTQIYVIDPE
notes: also called G strand changed to mouse
B2: binds (mouse CD86); binds [2]; binds (human CD80 (recombinant)).

B3: B15740 (Fab, V domains shown)
VH: EVQLVESGGGLVQPGGSLRLSCAASGFTFSDYWIHWVRQAPGKGLEWIGWISPSGGGTKYAQKFQGRVTISRDNSKNTLYLQLNSLRAEDTAVYYCARGAYEFDYWGQGTLVTVSS
VL: DIQLTQSPSSLSASVGDRVTITCRASQSVSSRFLAWYQQKPGKAPKLLIYDASNRATGIPSRFSGSGSGTDFTLTISSLQPEDFATYYCQQSYPTPLTFGQGTKVEIKR
notes: Fab hit from E. coli
B3: binds [1].

B4: TY21591 (antibody, V domains shown)
VH: EVQLVESGGGLVQPGGSLRLSCAASGFSLSTGGVAVSWIRQAPGKGLEWIGEIYHSGSTYYSPSLKSRVTISRDNSKNTLYLQLNSLRAEDTAVYYCARRIATATYFDYWGQGTLVTVSS
VL: DIQLTQSPSSLSASVGDRVTITCRASQTVFSRYLAWYQQKPGKAPKLLIYDASNRATGIPSRFSGSGSGTDFTLTISSLQPEDFATYYCQQSYYWPPWTFGQGTKVEIK
In the case of B4, the LogEC50 [3] is reported as -9.08 log M and the LogEC50 [4] is reported as -9.15 log M.

B5: TY22566 (antibody, IgG1, V domains shown)
VH: EVQLVESGGGLVQPGGSLRLSCAASGYSISSGYHWSWIRQAPGKGLEWLARIDWDDDKYYSTSLKSRLTISRDNSKNTLYLQLNSLRAEDTAVYYCARSYVYFDYWGQGTLVTVSS
VL: EVGSYPNPASDCVPYYYACAYSGRSAGGGGSPLGLAGSGGSDIQLTQSPSSLSASVGDRVTITCRASQSVRGRFLAWYQQKPGKAPKLLIYDASNRATGIPSRFSGSGSGTDFTLTISSLQPEDFATYYCQQSSSWPPTFGQGTKVEIKR
Work on B5 yielded an EC50 [5] of 163 nM and a LogEC50 [5] of -6.79 log M.

B6: TY22564 (antibody, IgG1, V domains shown)
VH: B5 VH
VL: EVGSYYSAYPACDSHYPYCNSAGRSAGGGGSPLGLAGSGGSDIQLTQSPSSLSASVGDRVTITCRASQSVRGRFLAWYQQKPGKAPKLLIYDASNRATGIPSRFSGSGSGTDFTLTISSLQPEDFATYYCQQSSSWPPTFGQGTKVEIKR
For B6, the EC50 [5] was 39 nM and the LogEC50 [5] was -7.41 log M.

B7: TY22563 (antibody, IgG1, V domains shown)
VH: B5 VH
VL: B6 VL with N20Q, A22S
B7 showed an EC50 [5] of 47.7 nM and a LogEC50 [5] of -7.32 log M.

B8: TY22402 (antibody, IgG1, V domains shown)
VH: B5 VH
VL: B6 VL with Y6I, S7V, A8H, Y9H, P10S, A11D, S14A, H15F, N20D, A22S
notes: also called masking peptide B13180
With B8 the EC50 [6] was 478 nM, the LogEC50 [6] was -6.32 log M and the EC50 [5] was 125 nM. It also gave a LogEC50 [5] of -6.9 log M.

B9: TY22401 (antibody, V domains shown)
VH: B5 VH
VL: EVGSYNFVADSCPDHPYPCSASGRSAGGGGSPLGLAGSGGSDIQLTQSPSSLSASVGDRVTITCRASQSVRGRFLAWYQQKPGKAPKLLIYDASNRATGIPSRFSGSGSGTDFTLTISSLQPEDFATYYCQQSSSWPPTFGQGTKVEIKR
notes: peptide fused to the N-terminus of the light chain; also called masking peptide B13189
With B9 the EC50 [6] was 23.8 nM, the LogEC50 [6] was -7.62 log M and the EC50 [5] was 15.9 nM. It also gave a LogEC50 [5] of -7.8 log M.

B10: TY22565 (antibody, IgG1, V domains shown)
VH: B5 VH
VL: B5 VL with N7Q, A9S
B10 gave an EC50 [5] of 210 nM and a LogEC50 [5] of -6.68 log M.

B11: TY22402 (peptide as listed in Table 26) (antibody, V domains shown)
VH: B5 VH
VL: EVGSYIVHHSDCDAFYPYCDSSGRSAGGGGTPLGLAGSGGSDIQLTQSPSSLSASVGDRVTITCRASQSVRGRFLAWYQQKPGKAPKLLIYDASNRATGIPSRFSGSGSGTDFTLTISSLQPEDFATYYCQQSSSWPPTFGQGTKVEIKR
notes: kept apart from m66
B11 gave an EC50 [7] of 116 nM and an EC50 [8] of 54 nM.

B12: TY21687 (antibody, V domains shown)
VH: EVQLVESGGGLVQPGGSLRLSCAASGFTFSGYAIHWVRQAPGKGLEWIGIISPSGGGTKYAQKFQGRVTISRDNSKNTLYLQLNSLRAEDTAVYYCARHPFAYWGQGTLVTVSS
VL: DIQLTQSPSSLSASVGDRVTITCRASQSVDFYGISFLDWYQQKPGKAPKLLIYDASNRATGIPSRFSGSGSGTDFTLTISSLQPEDFATYYCQQYVSSPPEYTFGQGTKVEIK
With B12 the “IC50 (read off the curve)” value [9] was ~40 nM, the LogEC50 [3] was -9.49 log M and the LogEC50 [4] was -9.13 log M.

B13: TY21585 (antibody, V domains shown)
VH: EVQLVESGGGLVQPGGSLRLSCAASGFTFSDYAIHWVRQAPGKGLEWIGIISPSSGSTNYAQKFQGRVTISRDNSKNTLYLQLNSLRAEDTAVYYCARDIHSGSSGYYYGFDVWGQGTLVTVSS
VL: B12 VL with Q27E, Y32F, D38A, Q94H, V96T, E101V
In the case of B13, the “IC50 (read off the curve)” value [9] is reported as ~20 nM, the LogEC50 [3] is reported as -9.26 log M and the LogEC50 [4] is reported as -8.22 log M.
